This test addresses recombinant mouse integrin αvβ3 (R&D Systems, 7889-AV-050) (mouse) (UniProt P43406). The experiment in a line: SPR, mutant ICOSL immobilised, αvβ3 as analyte, 0.2 mM Ca2+ and 0.1 mM Mg2+, steady-state affinity fit. Background: In SPR one partner is held on a chip, and binding of the other changes the refractive index at the surface.

Chain of recombinant mouse integrin αvβ3 (R&D Systems, 7889-AV-050) (mouse) (P43406 31-988 limits assumed, chain 1 of 2): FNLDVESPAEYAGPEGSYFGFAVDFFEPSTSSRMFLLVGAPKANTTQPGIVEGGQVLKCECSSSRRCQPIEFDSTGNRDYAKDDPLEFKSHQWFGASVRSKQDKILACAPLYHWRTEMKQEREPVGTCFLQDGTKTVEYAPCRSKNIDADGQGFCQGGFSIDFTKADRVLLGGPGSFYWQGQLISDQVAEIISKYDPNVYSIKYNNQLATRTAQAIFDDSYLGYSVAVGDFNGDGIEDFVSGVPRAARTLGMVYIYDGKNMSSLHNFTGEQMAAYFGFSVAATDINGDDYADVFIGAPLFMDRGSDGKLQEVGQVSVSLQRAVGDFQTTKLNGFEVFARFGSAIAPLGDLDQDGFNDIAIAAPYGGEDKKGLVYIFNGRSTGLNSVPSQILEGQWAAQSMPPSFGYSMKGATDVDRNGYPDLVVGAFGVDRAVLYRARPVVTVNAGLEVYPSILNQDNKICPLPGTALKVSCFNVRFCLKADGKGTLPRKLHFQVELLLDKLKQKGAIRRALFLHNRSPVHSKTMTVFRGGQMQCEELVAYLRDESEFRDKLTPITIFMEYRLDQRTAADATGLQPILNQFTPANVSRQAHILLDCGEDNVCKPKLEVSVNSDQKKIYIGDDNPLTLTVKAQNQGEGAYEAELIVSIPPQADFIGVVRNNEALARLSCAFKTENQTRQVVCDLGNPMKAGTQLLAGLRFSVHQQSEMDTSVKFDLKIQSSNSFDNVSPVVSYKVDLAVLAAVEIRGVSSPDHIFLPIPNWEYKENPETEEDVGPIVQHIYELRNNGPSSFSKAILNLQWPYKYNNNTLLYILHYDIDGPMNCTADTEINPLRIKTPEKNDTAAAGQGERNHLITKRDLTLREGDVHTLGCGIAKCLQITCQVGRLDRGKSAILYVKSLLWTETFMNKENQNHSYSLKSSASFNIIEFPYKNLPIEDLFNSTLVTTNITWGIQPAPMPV
Chain of recombinant mouse integrin αvβ3 (R&D Systems, 7889-AV-050) (mouse) (O54890 26-717 limits assumed, chain 2 of 2, further chain): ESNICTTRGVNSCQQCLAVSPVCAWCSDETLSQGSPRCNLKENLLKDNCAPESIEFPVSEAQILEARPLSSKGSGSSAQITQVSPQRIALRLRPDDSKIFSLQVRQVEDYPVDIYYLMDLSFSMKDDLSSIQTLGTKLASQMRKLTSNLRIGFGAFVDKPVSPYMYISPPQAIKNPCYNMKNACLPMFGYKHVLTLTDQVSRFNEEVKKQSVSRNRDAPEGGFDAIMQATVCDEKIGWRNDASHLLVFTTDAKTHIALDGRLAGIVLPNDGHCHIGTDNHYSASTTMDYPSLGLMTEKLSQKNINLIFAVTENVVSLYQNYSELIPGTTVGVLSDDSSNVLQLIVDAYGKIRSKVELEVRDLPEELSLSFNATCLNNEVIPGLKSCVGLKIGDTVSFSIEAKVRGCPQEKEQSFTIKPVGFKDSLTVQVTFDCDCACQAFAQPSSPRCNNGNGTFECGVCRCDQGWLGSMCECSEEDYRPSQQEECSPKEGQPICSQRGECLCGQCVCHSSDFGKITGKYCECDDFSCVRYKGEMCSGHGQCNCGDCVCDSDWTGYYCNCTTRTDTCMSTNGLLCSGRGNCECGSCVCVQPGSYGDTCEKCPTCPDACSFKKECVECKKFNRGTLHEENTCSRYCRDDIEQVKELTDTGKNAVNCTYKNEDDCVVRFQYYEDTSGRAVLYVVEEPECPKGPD

Broadly, the Kd is the constant that tells how readily two partners part at equilibrium. “RGD-mutated mouse ICOSL protein (RGD motif replaced with AAA) (from UniProt Q9JHJ8 44-322) (ligand)”: the Kd is 830 µM.

The record behind these values is patent US20210208163A1.
